Results published in PMC5712553, “A Novel TetR Family Transcriptional Regulator, CalR3, Negatively Controls Calcimycin Biosynthesis in Streptomyces chartreusis NRRL 3882”.
Substitutions are numbered along the chain they refer to.

T1: CalR3 (Streptomyces chartreusis NRRL 3882) (UniProt F8QZR9)
T1 sequence: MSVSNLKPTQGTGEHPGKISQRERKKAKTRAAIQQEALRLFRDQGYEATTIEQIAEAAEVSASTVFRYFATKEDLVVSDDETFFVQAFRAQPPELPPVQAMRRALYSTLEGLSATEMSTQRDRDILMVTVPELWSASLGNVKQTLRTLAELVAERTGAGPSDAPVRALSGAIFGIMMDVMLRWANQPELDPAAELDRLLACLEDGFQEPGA

T2: CalR3 (Streptomyces chartreusis NRRL 3882, UniProt F8QZR9 1-211)
T2 sequence: T1 sequence

B1: m0 (dsDNA)
DNA 1: AAGAGCGAGCCTCATGACAGGCAACCTTCTTTTAGGAGTCGACTTTCAATTGATAGCCTACTAGCACTTTGAGGAGATGA
DNA 2: TCATCTCCTCAAAGTGCTAGTAGGCTATCAATTGAAAGTCGACTCCTAAAAGAAGGTTGCCTGTCATGAGGCTCGCTCTT
B2: m1 (site II palindrome mutated) (dsDNA)
DNA 1: AAGAGCGAGCCTCATGACAGGCAACCTTCTTTTAGGAGTCGAGAATTCTAGATATCCCTACTAGCACTTTGAGGAGATGA
DNA 2: TCATCTCCTCAAAGTGCTAGTAGGGATATCTAGAATTCTCGACTCCTAAAAGAAGGTTGCCTGTCATGAGGCTCGCTCTT
B3: m1&2 (sites I and II mutated) (dsDNA)
DNA 1: B2 DNA 1 with T15A, G16C, A17T, C18G
DNA 2: B2 DNA 2 with G63C, T64A, C65G, A66T

Tests used:
[1] = target: T1, CalR3 (Streptomyces chartreusis NRRL 3882); assay: EMSA; settings: EMSA: 20 mM Tris-Cl pH 8.0, 100 mM KCl, 10 mM DTT, 37 C, 30 min, 20 ul, footprinting: 25 C, 500 ng probe in 40 ul
CalR3 [2] = target: T2, CalR3; assay: EMSA; 1.5 uM probe, 0.8 uM CalR3; two shifted bands; EMSA: 20 mM Tris-Cl pH 8.0, 100 mM KCl, 10 mM DTT, 37 C, 30 min, 20 ul; footprinting: 25 C, 30 min, 500 ng probe in 40 ul; settings: protein: recombinant; tags: N-terminal His6 (pET28a); chain copies: 2
CalR3 [3] = target: T2, CalR3; assay: EMSA; 1.5 uM probe, 0.8 uM CalR3; EMSA: 20 mM Tris-Cl pH 8.0, 100 mM KCl, 10 mM DTT, 37 C, 30 min, 20 ul; footprinting: 25 C, 30 min, 500 ng probe in 40 ul; settings: protein: recombinant; tags: N-terminal His6 (pET28a); chain copies: 2

Molecule	binding [1]	binding result (CalR3 [3])	also measured
TCCCTTGCGTCGGTTTCAGGTTGGACACGCTCATGCTCCACATTCTCCAGGCTCTCCGGCGGCCGGCCGGTCACGGCTGTGCCGCGCCCGGCCGCGTGCGGCGGTGGCAGCGAGGAGGAG (double strand) [T-R3R]	no binding		
CCAGCCGGTAAAGAGCGAGCCTCATGACAGGCAACCTTCTTTTAGGAGTCGACTTTCAATTGATAGCCTACTAGCACTTTGAGGAGATGAGAACTCCTCCTCGCTGCCACC (double strand) [T-R3L]	binds		
TGACAGGCAACCTTCTTTTAGGAGTCGACTTTCAATTGATAGCCTACTAGCACTTTGAGGAGATGAGAACTCCTCCTCGCTGCCACCGCCGCACGCGGCCGGGCGCGGCACAGCCGTGACCGGCCGGCCGCCGGAGAGCCTGGAGAATGTGGAGCA (double strand) [T-R3 (calT-calR3 intergenic)]	binds		
B1			binding result (CalR3 [2]): binds
B2		no binding	
B3		no binding	
